How the values were obtained:
[1] = target: rat acid sensing ion channel subtype 1a (homomeric, expressed in Xenopus laevis oocytes) (rat) (UniProt P55926); experiment: inhibition of rASIC1a currents in Xenopus oocytes
[2] = target: rat acid sensing ion channel subtype 1a (homomeric, expressed in Xenopus laevis oocytes) (rat) (UniProt P55926); experiment: cell-based or functional assay
[3] = target: T1, rat acid sensing ion channel subtype 2a (homomeric, expressed in Xenopus laevis oocytes) (rat, UniProt Q62962 1-512); experiment: cell-based or functional assay
T1 sequence: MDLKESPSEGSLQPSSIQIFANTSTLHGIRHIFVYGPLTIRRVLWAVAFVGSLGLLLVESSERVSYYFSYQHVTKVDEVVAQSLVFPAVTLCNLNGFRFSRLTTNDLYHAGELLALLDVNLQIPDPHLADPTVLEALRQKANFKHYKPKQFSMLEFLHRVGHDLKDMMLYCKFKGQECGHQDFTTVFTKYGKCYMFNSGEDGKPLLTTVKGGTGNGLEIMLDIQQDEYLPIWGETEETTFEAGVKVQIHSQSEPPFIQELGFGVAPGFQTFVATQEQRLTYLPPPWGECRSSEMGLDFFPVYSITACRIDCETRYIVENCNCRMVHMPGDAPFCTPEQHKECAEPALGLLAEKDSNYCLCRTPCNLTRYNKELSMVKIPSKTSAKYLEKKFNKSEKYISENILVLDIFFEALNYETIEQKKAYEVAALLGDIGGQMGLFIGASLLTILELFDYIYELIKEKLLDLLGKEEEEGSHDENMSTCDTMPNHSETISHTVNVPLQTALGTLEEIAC

[4] = target: T2, rat acid sensing ion channel subtype 3 (homomeric, expressed in Xenopus laevis oocytes) (rat, UniProt O35240 1-533); experiment: cell-based or functional assay
T2 sequence: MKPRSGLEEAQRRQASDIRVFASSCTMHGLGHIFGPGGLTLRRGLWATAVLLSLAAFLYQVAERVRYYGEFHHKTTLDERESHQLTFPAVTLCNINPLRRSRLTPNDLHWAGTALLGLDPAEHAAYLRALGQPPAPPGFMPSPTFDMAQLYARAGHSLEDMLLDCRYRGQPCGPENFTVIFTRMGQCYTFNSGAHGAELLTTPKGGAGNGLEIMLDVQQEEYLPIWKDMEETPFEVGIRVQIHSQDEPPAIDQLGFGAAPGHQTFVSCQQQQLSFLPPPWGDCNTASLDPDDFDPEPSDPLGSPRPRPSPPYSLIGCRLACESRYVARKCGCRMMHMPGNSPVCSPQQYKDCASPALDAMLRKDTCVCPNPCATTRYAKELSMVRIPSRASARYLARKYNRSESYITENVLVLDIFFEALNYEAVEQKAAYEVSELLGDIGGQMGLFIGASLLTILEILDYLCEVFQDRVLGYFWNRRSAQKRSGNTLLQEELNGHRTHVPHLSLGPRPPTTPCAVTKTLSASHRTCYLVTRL

[5] = target: rat acid sensing ion channel subtype 1b (homomeric, expressed in Xenopus laevis oocytes) (rat), P55926; experiment: cell-based or functional assay
[6] = target: human acid sensing ion channel subtype 1a (homomeric, expressed in Xenopus laevis oocytes) (human), P78348; experiment: cell-based or functional assay
Sequence of human acid sensing ion channel subtype 1a (homomeric, expressed in Xenopus laevis oocytes) (human), P78348 (P78348 whole entry): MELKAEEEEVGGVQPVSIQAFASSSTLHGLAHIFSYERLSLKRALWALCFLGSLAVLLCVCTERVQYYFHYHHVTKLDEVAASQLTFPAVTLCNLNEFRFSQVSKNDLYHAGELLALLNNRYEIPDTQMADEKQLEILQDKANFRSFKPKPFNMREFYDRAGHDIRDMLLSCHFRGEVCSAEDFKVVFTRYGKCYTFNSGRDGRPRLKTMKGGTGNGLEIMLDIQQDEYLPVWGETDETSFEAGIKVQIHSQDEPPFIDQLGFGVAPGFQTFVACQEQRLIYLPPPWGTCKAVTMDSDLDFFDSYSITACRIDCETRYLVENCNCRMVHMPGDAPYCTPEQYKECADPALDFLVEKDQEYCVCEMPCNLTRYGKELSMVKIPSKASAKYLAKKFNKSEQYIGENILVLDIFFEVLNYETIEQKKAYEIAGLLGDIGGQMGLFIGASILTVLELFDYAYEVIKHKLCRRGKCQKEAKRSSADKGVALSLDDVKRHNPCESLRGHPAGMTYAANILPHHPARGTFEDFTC

Sequence of rat acid sensing ion channel subtype 1a (homomeric, expressed in Xenopus laevis oocytes) (rat) (P55926 whole entry): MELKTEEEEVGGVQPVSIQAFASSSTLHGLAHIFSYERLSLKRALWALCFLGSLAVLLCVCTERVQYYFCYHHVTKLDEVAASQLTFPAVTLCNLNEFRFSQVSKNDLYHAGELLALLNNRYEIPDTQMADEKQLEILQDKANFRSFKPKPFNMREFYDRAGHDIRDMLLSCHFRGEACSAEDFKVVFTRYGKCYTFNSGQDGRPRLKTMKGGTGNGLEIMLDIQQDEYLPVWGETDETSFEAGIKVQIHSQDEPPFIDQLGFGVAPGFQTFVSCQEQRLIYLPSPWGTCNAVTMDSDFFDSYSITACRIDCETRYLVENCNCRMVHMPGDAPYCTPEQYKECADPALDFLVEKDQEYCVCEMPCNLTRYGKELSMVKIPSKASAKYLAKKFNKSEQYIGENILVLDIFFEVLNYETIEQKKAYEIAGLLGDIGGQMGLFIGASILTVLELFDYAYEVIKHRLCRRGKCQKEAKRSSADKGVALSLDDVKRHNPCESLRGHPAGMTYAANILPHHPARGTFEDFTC
Sequence of rat acid sensing ion channel subtype 1b (homomeric, expressed in Xenopus laevis oocytes) (rat), P55926 (P55926 whole entry): as above

“C-terminal ICK domain of Hi1a (Hi1a-C), produced in E. coli” gave an IC50 [1] greater than 30000 nM.

Work on “N-terminal ICK domain of Hi1a (Hi1a-N), produced in E. coli (peptide)” yielded an IC50 (inhibition of acid-evoked current, TEVC, Xenopus oocytes) [2] of 1000 nM and a fold lower potency than PcTx1 or full-length Hi1a [2] of 1000 fold.

Work on “recombinant Hi1a (π-hexatoxin-Hi1a) expressed in E. coli” yielded an IC50 [1] of 0.464 nM.

“recombinant Hi1a (π-hexatoxin-Hi1a) expressed in E. coli (peptide)” showed a % Residual Current [2] of 30% and an IC50 (inhibition of acid-evoked current, TEVC, Xenopus oocytes) [2] of 0.46 nM.

In the case of recombinant Hi1d (peptide), the % Residual Current [2] is reported as 0%, the IC50 (inhibition of acid-evoked current, TEVC, Xenopus oocytes) [2] is reported as 193 nM and the time to full reversal of inhibition on washout (TEVC) [2] is reported as less than 60 s.

B1: recombinant Hi1a (π-hexatoxin-Hi1a) expressed in E. coli (peptide)
peptide: SNECIRKWLSCVDRKNDCCEGLECYKRRHSFEVCVPIPGFCLVKWKQCDGRERDCCAGLECWKRSGNKSSVCAPIT
B1 was tested, and the “fold higher potency at ASIC1a over this subtype (from 1 µM Hi1a, TEVC)” value [3] was greater than 2000 fold, the “selectivity for ASIC1a over this subtype (from 30 nM Hi1a, TEVC)” value [3] was no less than 50 fold and the “fold higher potency at ASIC1a over this subtype (from 1 µM Hi1a, TEVC)” value [4] was greater than 2000 fold. The “selectivity for ASIC1a over this subtype (from 30 nM Hi1a, TEVC)” value [4] was no less than 50 fold, the fold higher potency at ASIC1a over this subtype (from 1 µM Hi1a, TEVC) [5] was greater than 2000 fold and the selectivity for ASIC1a over this subtype (from 30 nM Hi1a, TEVC) [5] was greater than 50 fold. The % Residual Current [6] was 20% and the IC50 (inhibition of acid-evoked current, TEVC, Xenopus oocytes) [6] was 590 pM.

B2: recombinant engineered peptide #1 (EP 1), two copies of PcTx1 joined by a linker (designed binder)
peptide: SEDCIPKWKGCVNRHGDCCEGLECWKRRRSFEVCVPKTEDCIPKWKGCVNRHGDCCEGLECWKRRRSFEVCVPKTPKT
B2 showed a % Residual Current [2] of 0%, an IC50 (inhibition of acid-evoked current, TEVC, Xenopus oocytes) [2] of 64 nM and a fold increase in IC50 against wild-type Hi1a [2] of 200 fold.

B3: recombinant engineered peptide #2 (EP 2), as EP 1 with a Glu to Gly mutation in the linker (designed binder)
peptide: SEDCIPKWKGCVNRHGDCCEGLECWKRRRSFEVCVPKTGDCIPKWKGCVNRHGDCCEGLECWKRRRSFEVCVPKTPKT
For B3, the % Residual Current [2] was 0%, the IC50 (inhibition of acid-evoked current, TEVC, Xenopus oocytes) [2] was 215 nM and the fold increase in IC50 against wild-type Hi1a [2] was 500 fold.

— patent US20200061156A1 (UNIVERSITY OF QUEENSLAND, published 2020)
